Series [1] in a line: in vitro release study of PADM in human plasma. It is filed as in vitro ADME. To be noted: over 6-7 h in human plasma. From the text: (§1) Activated CB cleaves the Phe-Lys dipeptide at the Lys-PABC bond. Then, the exposed PABC spacer spontaneously decarboxylates upon deacylation and free ADM molecules are released.
For series [2], the target named is Cathepsin B (CB) (Homo sapiens, UniProt P07858). Briefly: in vitro release study of PADM in CB solution. It is filed as biochemical. To be noted: 37° C., read-out: half-life of ADM release.
Text: as §1

This note sets out measurements from patent US20150335761A1, “COMPOSITIONS AND METHODS FOR CONTRACEPTION” (priority 2012, published 2015).

Broadly, the half-life is the time in which the quantity being followed falls by half. On to `COc1cccc2c1C(=O)c1c(O)c3c(c(O)c1C2=O)C[C@@](O)(C(=O)CO)C[C@@H]3O[C@H]1C[C@H](NC(=O)OCc2ccc(NC(=O)[C@H](CCCCN)NC(=O)[C@H](Cc3ccccc3)NC(C)=O)cc2)[C@H](O)[C@H](C)O1` [PADM, Ac-Phe-Lys-PABC-ADM], for which the “changes (ADM release) in human plasma” value in series [1] is recorded as “no changes were observed”. Further, in series [2], the half-life was 16 min.
